# Reference: the nanobody polyreactivity screen of Harvey et al. (2022)
# Test: yeast display, Sf9 membrane polyspecificity reagent, FACS + sequencing; frameworks hold sequencing errors
# Procedure, shortened: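 In a synthetic yeast display library (Saccharomyces cerevisiae BJ5465), nanobody expression was induced with galactose for 36–48 hours. FACS gates were set low and high (top ~1%) using anti-HA fluorescence for expression and streptavidin fluorescence for binding of the Sf9 membrane reagent. Each polyreactivity label is drawn from the gate of origin.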
row,Sequence,polyreactivity (PSR sort gate)
1,QVQLEESGGGLVQAGGSLRLSCAASGSTFKYYAMGWYRQAHGKERELVAAISRRGGSTYYADSVKGRFTISRDNAKNTVYLQMNSLKPEDTAVYYCAADIIRPVTVDYWGQGTQVTVSS,high polyreactivity
2,LVKLQESGGGLVQAGGSLRLSCAASGTISPGGYMGRYRQAPGKEGELVASINVGGSTNYADSVKGRFTISRDNAKNTVYLQMNSLIPEDNAVYYCAVWGRNRLQLSYWGQGTQVTVSS,low polyreactivity
3,QDQLVESVGGLVQAGGSLRLSCAASGGTFGPNAMGWYRQAPGKERELVAAISASGGITYYADSVKGRFTISRDNAKNTVYLQMNSLKPEDTAVYYCAAAITWIYSQAAFKIVQYDYWGQGTQVTVSS,low polyreactivity
4,QLQLVESGGGLVQAGGSLRLSCAASGNTFYQYAMGWYRQAPGKERELVAGIRYNGGSTYYADSVKGRFTISRDNAKNTVDLQMNSLKPEDTAVYYCATKGYTGYAYRYGYWGQGTQVTVSS,high polyreactivity
5,QVQLVESGGGLFQAGGSLRLSCAASGSTFDTNVMGWYRQAPGKERELVAAIDVSGGSTYYADSVKGRFTISRDNAKNTVYLQMNSLKPEDTAVYYCAAEGTTWYYDMDYWGQGTQVTVSS,low polyreactivity
6,QVQHVESGGGLVQAGGCLRVSCAASGRTFIYYAMGGYRPAPGKERELVAAITNRGGSTYYADSVKGRFTISRDNAQNTVYLLMNSLNPEDTAVYYCAARGKYPSASAYTYSYGYWGQGTQVTVSS,high polyreactivity
7,QVQLVESGGGLVKAGGSLRLSCAASGSTFDSYAMGWYRQPPGKERELVASITSNDGSTSYADSVKGRFTISRDNAKNTVYLQMNSLKPEDTAVYYCAASSLYSDYGHRNLADGPYDYWGQGTQVTVSS,low polyreactivity
8,QVQLVESGGGLVQAGGSLRLSCAASGLTFSGNVMGCYIQAPGKERELVAAIDRSGGSTYYADSVKGRFTISRDNAKNTVYLQMNSLKPEDTAVYYCAVSSYPNHSRSWDDYWGQGTQVTVSS,low polyreactivity
9,QVQLVESGGGLVQAGGSLRLSCAASGNTFSNYAMGWYRQAPGKERELVAAISRSGGRTYYADSVKGRFTISRDNAKNSVYLKMNSLKPEDTAVYDCIATSNGESYYWGQGTQVTVSS,high polyreactivity
10,QVQLVESGGGLVQAGGSLRLSCAASGRNFHKYAMGWYRQAPGKERELVAAITGSGVRTYYADSVKGRFTISRDNAKNTVYLQMNSLKPEDTAVYYCNADSYYGNGDYWGQGTQVTVSS,high polyreactivity
11,QVQLVESGGGLVQAGGSLRLSCAASGFIFGHNTMVWYRQAPGKERELVAAITRSGGRTYYADSVKGRFTISRDNAKNTVYLQMNSLKPEDTAVYYCNAYPTRPADGDYDYWGQGTQVTVSS,high polyreactivity
12,QVQLVESGGGLVQAGGSLRLSCAASGRIFFVYAMGWYRQSPGKERELVAAISVSDVSTSYADSVKGRFTISRDIAKNTVYLQMNSLKQEDTAVYYCNAGFRFYVYSRIGGEDYWGQGTQVTVSS,low polyreactivity
13,QVQLVESGGGLVKEGGSLRLRCAASGRTFYVNAMGWSRQAPGKERELFASISSSGGSTYYADSVKGRFTSSRDNAKNTVYLQMNRLKPEDTEVYYCAKGYWPFWRGDRFYWGQGTQVTVSS,high polyreactivity
14,QVQLVESGGGLVQAGGSLRLSCAASGRIFNRYAMGWYRQAPGKEREFVAAISVRGGTTYYADSVKGRFTISRDNAKNTVYLQMNSLKPEDTAVYYCAARKISKYDYWGQGTQVTVSS,high polyreactivity
15,QVQLVESGGGLVQAGGSLRLSCAASGRIFGRNAMGWYRQAPGKEREFVAGITTNGGRTYYADSVKGRFTISRDYAKNSVFLQMNSLIPEDTAVYYWAAVRYYFLKYYYWGQGTQVTVSS,high polyreactivity
16,QVHLVESGGGLVQAGGSLRLSCAASGFTFIDYAMGWYRQAPGTERELVAAITTGTITYYADSVQGRFTISRDNAKNTVYLQMNSLKPEDTAVYYCAPTYSRRGGYRMEYWGQGTQVTVSS,low polyreactivity
